Measured values reported in US20260365731 (published 2026).
Where “and” joins values, the source holds several entries; their conditions need not be identical. Equal entries are not always repeated.

B1: DotAb4 (designed binder)
chain: EVQLVESGGGLVQPGGSLRLSCAISGFSLAATDIDWVRQAPGKGLEWVARIFSPSDFTDYADSVKGRFTISADTSKNTVYLQMNSLRAEDTAVYYCGRPDTYAYNIFLDTPTYNALHYRGQGTLVTVSS
B2: Antibody 28 PD-1 arm (antibody, V domains shown)
VH: QGQLVQSGAEVKKPGASVKVSCKASGYTFTDYEMHWVRQAPIHGLEWIGVIESETGGTAYNQKFKGRVTITADKSTSTAYMELSSLRSEDTAVYYCAREGITTVATTYYWYFDVWGQGTTVTVSS
VL: DVVMTQSPLSLPVTLGQPASISCRSSQSIVHSNGNTYLEWYLQKPGQSPQLLIYKVSNRFSGVPDRFSGSGSGTDFTLKISRVEAEDVGVYYCFQGSHVPLTFGQGTKLEIK
B3: JS001 (TAB001, toripalimab) (antibody, V domains shown)
VH: B2 VH
VL: B2 VL
B4: Antibody 24 PD-1 arm (antibody, V domains shown)
VH: B2 VH
VL: B2 VL
B5: Antibody 23 PD-1 arm (antibody, V domains shown)
VH: B2 VH
VL: B2 VL
B6: Antibody 27 PD-1 arm (antibody, V domains shown)
VH: B2 VH
VL: B2 VL

Columns and labels:
[1] = molecular target: T1, human VEGFA (human, UniProt P15692); test: BLI
T1 chain: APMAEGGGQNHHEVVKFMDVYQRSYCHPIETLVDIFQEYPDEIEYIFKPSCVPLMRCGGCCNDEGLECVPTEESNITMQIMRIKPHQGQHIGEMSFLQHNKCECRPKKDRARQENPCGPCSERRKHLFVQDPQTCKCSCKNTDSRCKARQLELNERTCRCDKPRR

[2] = molecular target: T2, human PD-1 (human, UniProt Q15116); test: BLI
[3] = molecular target: T2, human PD-1; test: competition ELISA, PD-L1 blocking
[4] = molecular target: T2, human PD-1; test: ELISA
[5] = molecular target: T1, human VEGFA; test: SPR

Binder | Kd [1] [nM] | Kd [2] [nM] | IC50 [3] | EC50 [4] [nM] | binding result [5]
B1 | < 0.0266 | – | – | – | –
B2 | – | 1.67 | 573 nM | 59.5 | –
B3 | – | 0.584 | 255 nM and 135 nM | – | no binding
B4 | – | 1.21 | 243 nM | 14.6 | –
B5 | – | 1.73 | 293 nM | 6.93 | –
B6 | – | 0.864 | 297 nM | 23.8 | –
